For this data set, the target named is GST-TCF-4 DBD (UniProt Q9NQB0 265-496). Kind of data set: EMSA; EMSA, 0.5 ug GST-TCF-4 DBD or GST; buffer, salt, pH and temperature not stated (as in Hlubek et al 2004). To be noted: protein: recombinant; tags: GST; label: end label (probe); blunt.
GST-TCF-4 DBD, sequence (Q9NQB0 265-496): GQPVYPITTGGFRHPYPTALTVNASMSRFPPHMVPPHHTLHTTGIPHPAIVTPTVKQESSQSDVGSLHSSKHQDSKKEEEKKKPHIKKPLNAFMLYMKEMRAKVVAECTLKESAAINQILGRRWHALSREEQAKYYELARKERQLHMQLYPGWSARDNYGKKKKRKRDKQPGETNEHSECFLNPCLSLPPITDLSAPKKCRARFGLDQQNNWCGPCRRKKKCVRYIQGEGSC

B1: securin-TBE (wt) (dsDNA)
DNA 1: ATAAATCACTATCAAAGGATAGAATTT
DNA 2: AAATTCTATCCTTTGATAGTGATTTAT
As for B1, the binding result was “binds”.

B2: securin-mutTBE (mt) (dsDNA)
DNA 1: ATAAATCACTGCCAAAGGATAGAATTT
DNA 2: AAATTCTATCCTTTGGCAGTGATTTAT
As to B2, the binding result is listed as “no binding”.

Values taken from article PMC2361298, “Securin (hPTTG1) expression is regulated by β-catenin/TCF in human colorectal carcinoma”.
